The text below walks through data of article PMC10687090, “The dimerized pentraxin-like domain of the adhesion G protein–coupled receptor 112 (ADGRG4) suggests function in sensing mechanical forces” (The Journal of Biological Chemistry, 2023).

Data set [1] concerns the molecule itself. Nature of the data set: SAXS Guinier Rg, model with 1x N-glycosylation.
Data set [2] deals with the molecule itself. The data set can be described thus: SAXS; concentration series 0.27-9.15 mg/mL, 3 to 5% glycerol added; KD by nonlinear regression of experimental Rg^2 versus concentration (Equation 4) with theoretical Rg of monomer and dimer for zero to two N-glycosylations; dimer to monomers.
Data set [3] deals with the molecule itself. Nature of the data set: static light scattering; DynaPro NanoStar, 20 °C, quartz cuvette, several protein concentrations; molecular mass increased with protein concentration; no significant change of hydrodynamic radii and molecular mass in the presence of Ca2+; monomer to dimer.

B1: PTX-like domain of the human ADGRG4 (residues 1-240) (domain or fragment, UniProt Q8IZF6-1 28-240, looked up)
chain: LKGKKLDFFGRGDTYVSLIDTIPELSRFTACIDLVFMDDNSRYWMAFSYITNNALLGREDIDLGLAGDHQQLILYRLGKTFSIRHHLASFQWHTICLIWDGVKGKLELFLNKERILEVTDQPHNLTPHGTLFLGHFLKNESSEVKSMMRSFPGSLYYFQLWDHILENEEFMKCLDGNIVSWEEDVWLVNKIIPTVDRTLRCFVPENMTIQEKS
modifications: N-glycosylated (heterogeneous; putative N-glycosylation sites N166 and N233)
notes: signal peptide in the construct: human ADGRG4 (GPR112) residues 1-240, UniProt Q8IZF6-1; residues 1 to 25 are a signal peptide and are not present in the secreted protein; residues 26-162 and 176-231 are resolved in the crystal structure; Expected monomer mass printed as 30.5 kDa; also called G4-PTX; ADGRG4-PTX
For the protein B1, the dissociation constant (Kd) in data set [1] was 20 µM; in data set [2], 7 to 32 µM. Besides, the “stoichiometry N” value in data set [3] is 2.

By Kd is commonly meant the equilibrium constant for the complex coming apart. The low end stands for a tighter complex, the high end for a looser complex. Broadly, the stoichiometry N is the number of molecules, sites or subunits per partner or assembly.
